B1: Cofilin-2: human brain protein (protein, UniProt Q9Y281 2-166, looked up)
Cofilin-2: ASGVTVNDEVIKVFNDMKVRKSSTQEEIKKRKKAVLFCLSDDKRQIIVEEAKQILVGDIGDTVEDPYTSFVKLLPLNDCRYALYDATYETKESKKEDLVFIFWAPESAPLKSKMIYASSKDAIKKKFTGIKHEWQVNGLDDIKDRSTLGEKLGGNVVVSLEGKPL
B2: Peroxiredoxin-5, mitochondrial: human brain protein (protein, UniProt P30044 53-214, looked up)
Peroxiredoxin-5, mitochondrial: MAPIKVGDAIPAVEVFEGEPGNKVNLAELFKGKKGVLFGVPGAFTPGCSKTHLPGFVEQAEALKAKGVQVVACLSVNDAFVTGEWGRAHKAEGKVRLLADPTGAFGKETDLLLDDSLVSIFGNRRLKRFSMVVQDGIVKALNVEPDGTGLTCSLAPNIISQL
B3: Tubulin beta-3 chain: human brain protein (protein, UniProt Q13509 1-450, looked up)
Tubulin beta-3 chain: MREIVHIQAGQCGNQIGAKFWEVISDEHGIDPSGNYVGDSDLQLERISVYYNEASSHKYVPRAILVDLEPGTMDSVRSGAFGHLFRPDNFIFGQSGAGNNWAKGHYTEGAELVDSVLDVVRKECENCDCLQGFQLTHSLGGGTGSGMGTLLISKVREEYPDRIMNTFSVVPSPKVSDTVVEPYNATLSIHQLVENTDETYCIDNEALYDICFRTLKLATPTYGDLNHLVSATMSGVTTSLRFPGQLNADLRKLAVNMVPFPRLHFFMPGFAPLTARGSQQYRALTVPELTQQMFDAKNMMAACDPRHGRYLTVATVFRGRMSMKEVDEQMLAIQSKNSSYFVEWIPNNVKVAVCDIPPRGLKMSSTFIGNSTAIQELFKRISEQFTAMFRRKAFLHWYTGEGMDEMEFTEAESNMNDLVSEYQQYQDATAEEEGEMYEDDEEESEAQGPK
B4: ATP synthase subunit alpha, mitochondrial: human brain protein (protein, UniProt P25705 44-553, looked up)
ATP synthase F(1) complex …: QKTGTAEMSSILEERILGADTSVDLEETGRVLSIGDGIARVHGLRNVQAEEMVEFSSGLKGMSLNLEPDNVGVVVFGNDKLIKEGDIVKRTGAIVDVPVGEELLGRVVDALGNAIDGKGPIGSKTRRRVGLKAPGIIPRISVREPMQTGIKAVDSLVPIGRGQRELIIGDRQTGKTSIAIDTIINQKRFNDGSDEKKKLYCIYVAIGQKRSTVAQLVKRLTDADAMKYTIVVSATASDAAPLQYLAPYSGCSMGEYFRDNGKHALIIYDDLSKQAVAYRQMSLLLRRPPGREAYPGDVFYLHSRLLERAAKMNDAFGGGSLTALPVIETQAGDVSAYIPTNVISITDGQIFLETELFYKGIRPAINVGLSVSRVGSAAQTRAMKQVAGTMKLELAQYREVAAFAQFGSDLDAATQQLLSRGVRLTELLKQGQYSPMAIEEQVAVIYAGVRGYLDKLEPSKITKFENAFLSHVVSQHQALLGTIRADGKISEQSDAKLKEIVTNFLAGFEA
B5: 14-3-3 protein epsilon: human brain protein (protein, UniProt P62258 1-255, looked up)
14-3-3 protein epsilon: MDDREDLVYQAKLAEQAERYDEMVESMKKVAGMDVELTVEERNLLSVAYKNVIGARRASWRIISSIEQKEENKGGEDKLKMIREYRQMVETELKLICCDILDVLDKHLIPAANTGESKVFYYKMKGDYHRYLAEFATGNDRKEAAENSLVAYKAASDIAMTELPPTHPIRLGLALNFSVFYYEILNSPDRACRLAKAAFDDAIAELDTLSEESYKDSTLIMQLLRDNLTLWTSDMQGDGEEQNKEALQDVEDENQ
B6: Acetyl-CoA acetyltransferase, mitochondrial: human brain protein (protein, UniProt P24752 34-427, looked up)
Acetyl-CoA acetyltransferase, …: VSKPTLKEVVIVSATRTPIGSFLGSLSLLPATKLGSIAIQGAIEKAGIPKEEVKEAYMGNVLQGGEGQAPTRQAVLGAGLPISTPCTTINKVCASGMKAIMMASQSLMCGHQDVMVAGGMESMSNVPYVMNRGSTPYGGVKLEDLIVKDGLTDVYNKIHMGSCAENTAKKLNIARNEQDAYAINSYTRSKAAWEAGKFGNEVIPVTVTVKGQPDVVVKEDEEYKRVDFSKVPKLKTVFQKENGTVTAANASTLNDGAAALVLMTADAAKRLNVTPLARIVAFADAAVEPIDFPIAPVYAASMVLKDVGLKKEDIAMWEVNEAFSLVVLANIKMLEIDPQKVNINGGAVSLGHPIGMSGARIVGHLTHALKQGEYGLASICNGGGGASAMLIQKL
B7: Endophilin-A1: human brain protein (protein, UniProt Q99962 1-352, looked up)
Endophilin-A1: MSVAGLKKQFHKATQKVSEKVGGAEGTKLDDDFKEMERKVDVTSRAVMEIMTKTIEYLQPNPASRAKLSMINTMSKIRGQEKGPGYPQAEALLAEAMLKFGRELGDDCNFGPALGEVGEAMRELSEVKDSLDIEVKQNFIDPLQNLHDKDLREIQHHLKKLEGRRLDFDYKKKRQGKIPDEELRQALEKFDESKEIAESSMFNLLEMDIEQVSQLSALVQAQLEYHKQAVQILQQVTVRLEERIRQASSQPRREYQPKPRMSLEFPTGDSTQPNGGLSHTGTPKPSGVQMDQPCCRALYDFEPENEGELGFKEGDIITLTNQIDENWYEGMLHGHSGFFPINYVEILVALPH
B8: Heat shock protein, 60 kDa, mitochondrial: human brain protein (protein, UniProt P10809 27-573, looked up)
60 kDa heat shock protein, …: AKDVKFGADARALMLQGVDLLADAVAVTMGPKGRTVIIEQSWGSPKVTKDGVTVAKSIDLKDKYKNIGAKLVQDVANNTNEEAGDGTTTATVLARSIAKEGFEKISKGANPVEIRRGVMLAVDAVIAELKKQSKPVTTPEEIAQVATISANGDKEIGNIISDAMKKVGRKGVITVKDGKTLNDELEIIEGMKFDRGYISPYFINTSKGQKCEFQDAYVLLSEKKISSIQSIVPALEIANAHRKPLVIIAEDVDGEALSTLVLNRLKVGLQVVAVKAPGFGDNRKNQLKDMAIATGGAVFGEEGLTLNLEDVQPHDLGKVGEVIVTKDDAMLLKGKGDKAQIEKRIQEIIEQLDVTTSEYEKEKLNERLAKLSDGVAVLKVGGTSDVEVNEKKDRVTDALNATRAAVEEGIVLGGGCALLRCIPALDSLTPANEDQKIGIEIIKRTLKIPAMTIAKNAGVEGSLIVEKIMQSSSEVGYDAMAGDFVNMVEKGIIDPTKVVRTALLDAAGVASLLTTAEVVVTEIPKEEKDPGMGAMGGMGGGMGGGMF

Key:
[1] = tested on: oligomeric Aβ1-42 (oAβ1-42-biotin bait); assay: Affinity capture interactome Experiment II (C-terminally tethered oAβ1-42-biotin vs biotin); conditions: for Experiment II oAβ1-42-B/B Ratio: enrichment relative to biotin-only negative control, human frontal lobe digitonin extract, TMT, pH 8.0, 4°C overnight
[2] = tested on: oligomeric versus monomeric Aβ1-42 (Aβ1-42-biotin bait); assay: Affinity capture interactome Experiment III (oAβ1-42-biotin vs mAβ1-42-biotin); conditions: for Experiment III oAβ1-42-B/mAβ1-42-B Ratio: oligomeric versus monomeric bait, human frontal lobe digitonin extract, TMT, pH 8.0, 4°C overnight

Molecule | Experiment II oAβ1-42-B/B Ratio [1] | Experiment III oAβ1-42-B/mAβ1-42-B Ratio [2] | other results
B1 | 1.81 | 6.93 | –
B2 | 2.15 | 5.90 | –
B3 | 1.18 | 2.04 | –
B4 | 2.16 | 4.88 | –
B5 | – | – | 126/131 ([1]; Experiment II, oAbeta 1-42-biotin (TMT 126) versus biotin (TMT 131), replicate channel 126): 1.157; 128/131 ([1]; Experiment II, oAbeta 1-42-biotin (TMT 128) versus biotin (TMT 131), replicate channel 128): 1.411; 130/131 ([1]; Experiment II, oAbeta 1-42-biotin (TMT 130) versus biotin (TMT 131), replicate channel 130): 1.195; 128/131 ([2]; Experiment III, oAbeta 1-42 (TMT 128) versus mAbeta 1-42 (TMT 131), replicate channel 128): 1.113; 130/131 ([2]; Experiment III, oAbeta 1-42 (TMT 130) versus mAbeta 1-42 (TMT 131), replicate channel 130): 0.949
B6 | 2.64 | 2.45 | –
B7 | 1.28 | 1.07 | –
B8 | 2.27 | 4.21 | –
